According to PMC9802395 (2022):
Read-outs that look alike come from different tables or passages of the source. Blank lines part the entries; values can stand above or below the binder they belong to.

B1: biotinylated EIIIB (protein fragment of fibronectin splice variant EIIIB) (domain or fragment)
chain: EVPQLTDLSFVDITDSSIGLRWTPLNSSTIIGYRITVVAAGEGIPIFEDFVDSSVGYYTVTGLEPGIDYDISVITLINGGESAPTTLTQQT
modifications: biotin (ChromaLink NHS-biotin reagent)

Key:
Experiment in all cases: BLI
[1] = molecular target: NJB2
[2] = molecular target: LMJ2.4C
[3] = molecular target: LMJ2.5G
[4] = molecular target: LMJ1.3J
[5] = molecular target: LMJ2.5C
[6] = molecular target: LMJ2.5H
[7] = molecular target: LMJ1.2G
[8] = molecular target: LMJ2.5J
[9] = molecular target: LMJ2.6A
[10] = molecular target: B1
[11] = molecular target: B1; remark: listed apart in the source
[12] = molecular target: B1; remark: listed apart in the source
[13] = molecular target: B1; remark: listed apart in the source

LMJ2.6A, sequence (P02751 1266-1356): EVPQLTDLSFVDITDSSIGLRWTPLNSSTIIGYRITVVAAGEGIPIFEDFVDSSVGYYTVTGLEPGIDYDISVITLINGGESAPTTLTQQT
LMJ2.5H, sequence (P02751 1266-1356): as above
NJB2, sequence (P02751 1266-1356): as above
LMJ2.4C, sequence (P02751 1266-1356): as above
LMJ1.3J, sequence (P02751 1266-1356): as above
LMJ2.5G, sequence (P02751 1266-1356): as above
LMJ2.5C, sequence (P02751 1266-1356): as above
LMJ1.2G, sequence (P02751 1266-1356): as above
LMJ2.5J, sequence (P02751 1266-1356): as above

Binder: B1
Kd [1]: 1.82 nM
koff [1]: 0.00104 s⁻¹
Kd [2]: 0.0626 nM
koff [2]: 4.8e-05 s⁻¹
Kd [3]: 0.166 nM
koff [3]: 9.13e-05 s⁻¹
Kd [4]: 0.402 nM
koff [4]: 0.000305 s⁻¹
Kd [5]: 0.0785 nM
koff [5]: 3.52e-05 s⁻¹
Kd [6]: 0.227 nM
koff [6]: 0.000136 s⁻¹
Kd [7]: 0.973 nM
koff [7]: 0.000475 s⁻¹
Kd [8]: 0.0622 nM
koff [8]: 4.45e-05 s⁻¹
Kd [9]: 0.344 nM
koff [9]: 7.47e-05 s⁻¹

B3: LMJ1.2C nanobody, biotin-tagged (VHH)
VHH: QVQLVETGGGLVQAGGSLRLSCAASGSTFSHSAGGWYRQAPEKQRELVAGIRSDGNINYADSVKDRFTISRDNASNTMYLQMNNLKPEDTAVYVCNIRGSYGNTYYSRWGQGTQVTVSS
modifications: biotin at the C-terminus via sortase-mediated tagging (nucleophile GGGK-Biotin)
koff [13]: 0.00015 s⁻¹

B7: LMJ1.2C-IL2 (LMJ1.2C nanobody fused to murine IL-2) (VHH)
VHH: QVQLVETGGGLVQAGGSLRLSCAASGSTFSHSAGGWYRQAPEKQRELVAGIRSDGNINYADSVKDRFTISRDNASNTMYLQMNNLKPEDTAVYVCNIRGSYGNTYYSRWGQGTQVTVSS
koff [10]: 5.06e-06 s⁻¹
Kd [11]: 0.0144 nM

Continued, values first:

koff [10]: 0.000289 s⁻¹
Kd [11]: 0.996 nM
Kd [12]: 1.1 nM
B2: NJB2-IL2 (NJB2 nanobody fused to murine IL-2) (VHH)
VHH: QVQLVETGGGLVQAGGSLRLSCAASGSTFSHNAGGWYRQAPEKQRELVAGISSDGNINYADSVKDRFTISRDNASNTMYLQMNNLKPEDTAVYVCNIRGSYGNTYYSRWGQGTQVTVSS

koff [10]: < 1e-07 s⁻¹
Kd [11]: < 0.001 nM
B4: LMJ2.5I-IL2 (LMJ2.5I nanobody fused to murine IL-2) (VHH)
VHH: RVQLVETGGGLVQAGGSLRLSCAVSGSTFSHSAGGWYRQAPEKQRELVAGIRSDGNINYADSVKDRFTISRDNASNTMYLQMNNLKPEDTAVYVCNIRGSYGNTYYSRWGQGAQVTVSS

koff [13]: 2.49e-05 s⁻¹
B5: LMJ2.5I nanobody, biotin-tagged (VHH)
VHH: RVQLVETGGGLVQAGGSLRLSCAVSGSTFSHSAGGWYRQAPEKQRELVAGIRSDGNINYADSVKDRFTISRDNASNTMYLQMNNLKPEDTAVYVCNIRGSYGNTYYSRWGQGAQVTVSS
modifications: biotin at the C-terminus via sortase-mediated tagging (nucleophile GGGK-Biotin)

Kd [12]: 1.6 nM
B6: NJB2-IL2-mt (NJB2 fused to murine IL-2 bearing point mutations that abrogate cytokine activity) (VHH)
VHH: QVQLVETGGGLVQAGGSLRLSCAASGSTFSHNAGGWYRQAPEKQRELVAGISSDGNINYADSVKDRFTISRDNASNTMYLQMNNLKPEDTAVYVCNIRGSYGNTYYSRWGQGTQVTVSS
